The target in the assay is human APJ receptor (hAPJ) (human) (UniProt P35414). Nature of the assay: cell-based or functional assay.
Chain of human APJ receptor (hAPJ) (human) (P35414 whole entry): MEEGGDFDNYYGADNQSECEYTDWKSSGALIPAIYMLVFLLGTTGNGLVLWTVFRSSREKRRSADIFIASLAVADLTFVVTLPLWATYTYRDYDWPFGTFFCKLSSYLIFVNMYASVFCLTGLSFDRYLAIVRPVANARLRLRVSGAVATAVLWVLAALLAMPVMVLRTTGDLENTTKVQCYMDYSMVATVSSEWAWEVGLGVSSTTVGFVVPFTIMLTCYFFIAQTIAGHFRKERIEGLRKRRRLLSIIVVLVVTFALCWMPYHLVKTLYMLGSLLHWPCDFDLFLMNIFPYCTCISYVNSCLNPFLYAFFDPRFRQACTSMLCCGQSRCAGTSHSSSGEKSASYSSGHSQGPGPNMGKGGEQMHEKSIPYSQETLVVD

In turn, “Example 3: Albumin-MPA-NHCH2CH2CH2-OCH2CH2OCH2CH2O-CH2CH2CH2NH-C(O)CH2CH2C=O-A-R-P-R-L-S-H-K-G-P-Nle-P-F-OH (from UniProt P02768 25-609)” had a hAPJ Ca2+ Flux EC50 of 52 nM.

For the substance “Example 1: Albumin-MPA-O2Oc-O2Oc-O2Oc-O2Oc-Q-R-P-R-L-C*-H-F-G-P-Nle-C*-f-OH (from UniProt P02768 25-609)”, the hAPJ Ca2+ Flux EC50 was determined as 47.2 nM.

In the case of “Example 2: Albumin-TPA-O2Oc-O2Oc-O2Oc-O2Oc-Q-R-P-R-L-C*-H-F-G-P-Nle-C*-f-OH (from UniProt P02768 25-609)”, the hAPJ Ca2+ Flux EC50 turned out to be 92.4 nM.

These data come from patent US20160166634A1 (Novartis, published 2016).
